# Test: yeast display, Sf9 membrane polyspecificity reagent, FACS + sequencing; frameworks hold sequencing errors
# How it was run: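 Galactose-induced (36–48 hours) yeast carrying a synthetic nanobody display library were exposed to 10% biotinylated, detergent-solubilized Sf9 membrane reagent at 4 °C for 1 hour. FACS followed streptavidin microbead enrichment, using low and high (top ~1%) gates for expression (anti-HA) and reagent binding (streptavidin). Colony PCR, MiSeq 2 × 250 sequencing and CDR-length filtering followed. Labels for polyreactivity reflect the gate of origin.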
row,Sequence,polyreactivity (PSR sort gate)
1,QVQLVESGGGLVQAGGSLRLSCAASGYTIIVNAMGWYRQAPGKERELVAAISWSSVSTYYADSVKGRFTISRDNAKNTVYLQMNSLKPEDTAVYYCAAEGYDYSQWFDYWGQGTQVTASS,high polyreactivity
2,QVQLVESGGGLVQAGGSLRLSCAASGFTFYTYAMGWYRQAPGKEMELVADISSGGSTNYADSVKGRFTISRDNAKNTVYLQMNSLKPEDTAVYYCSADYYFLDWYDYWGQGTQVTVSS,low polyreactivity
3,QVQLVETGGRLVQAGGSLRLSCAASGFTFHQYTMGWYRQAPGKESELVAAITGTGDTYYADSVKGRFTISRDNAKNTVNLQMNSLKPEDTAVYYCAADWVTYWYYKGFYYWGQGTQVTVSS,high polyreactivity
4,QVQLVESGGGLVQAGGSLRLTCAASGFTFGSYAMGWNRQAPGKERELVAVITRSGRTNYADSVKGRFTISRDNAKNTVYLQMNSLKPEDTAVYYCNADDVDDEVSPDLTEMDYWGQGTQVTVSS,low polyreactivity
5,QVQLVESGGGLVQAGGSLRLSCAASGSIFSYYAMGWYRPAPGKERELVAAISKRGPSTYYADSVKGRFTISRDNAKNSVYLLMNSLKPEDTAVYYCAAKYSRRSSVSYYYWGQGTQVTVSS,high polyreactivity
6,QVQLVESGGGLVQAGGSLRLSCAASGSTFYVYAMGWYRQAPGKERELVAAITSGDDTNYADSVKGRFTISRDNAKNTVYLQMNSLKPEDPAVYYCAAEAVGYGSPRGYYWYDYWGQGTQVTVSS,high polyreactivity
7,QVQLVESGGCIDQAGGSLRLSCAASGSNFRGYAKGWYRQAPGKERELVAAITWSGGSTYYADSVKGRFTISRDKAKNTVSLQMNSLKPEDTAVYYCAAEYWDSDTYDYCGQGTQVTVSS,low polyreactivity
8,QVQLVESGGGLVQAGGSLRLSCAASGSIFLDYAMGWYRQAPGKERELVAAITSGGSTYYADSVKGRFTISRDNAKNTVYLQMNSLKPEDTAVYYCNDEYPQYKAGFYGYDYWGQGTQVTVSS,low polyreactivity
9,QVQLVESGGGLVQAGGSLRLSCAASGRIFPRNAMGWYRQAPGKERELVAAISQSGTSTYYADSVKGRFTISRDNAKNTVYLQMNSLKPEDTAVYYCAAVSSSGYYWGQGTQVTVSS,low polyreactivity
10,QVQLVESGGGLVQAGGSLRLSCAASGRTLTFYAMGWYRQAPGTERELVAAITWRAGSTYYADSVKGRFTISRDNAKNTVYLQMNSMKPEDTAVYYCAREPYSASHVYGLYRGYDYWGQGTQVTVSS,low polyreactivity
11,QVQLEESGRGLVQAGGSLRLSCASSGIIFDGNAMGWYRQAAGKERELVAAITGGGSTDNADSVKGRFTISRDNGKYTVYLQMNSLKPEDTAVYYCAAVRSYYPGYYLGQGTQVTVSS,high polyreactivity
12,QVQLVESGGGLVQAGGSLRLSCAASGRIFVYYAMGWYRPAPGKERELVATITETGGSTYYADSVKGRFTISRDNAKNTVYLQMNSLKPEDSAVYYCNADYWGTYGWDWYWYVYWGQGTQVTVSS,low polyreactivity
13,QVQLVESGGGLVQAGGSLRLSCAASGFIFGYYAMGWYRQAPGKERELVAAITSGTGTNYADSVKGRFTISRDNAKNTVYLQMNSLKPEDTAVYYCAAYYTWLSEFGYWGQGTQVTVSS,low polyreactivity
14,QVQLVESGGGLVQAGGSLRLSCAASGFTFRYYAMGWYRQAPGKERELVASITGGGRTYYADSVKGRFTISRDNAKNTVYLQMNSLKPEDTAVYYCATLLAYRLGSGYDSWGQGTQVTVSS,high polyreactivity
15,QVQLVESGGGLVQAGGSLRLSCAASGRIFIYYTMGWYRQAPGKEREFVAAITYSGGSTRYADSVKGRFTISRDNAKNTVYLQMNSLKPEDTAVYYCAAKFSVRRGFDYWGQGTQVTVSS,low polyreactivity
16,QVQLVESGVGLVQAGGSLRLSCAASGLIFFFYAMGWYRQAPGKERELVASISGGGITYYADSVKGRFTISRDNAKNTVYLQMNSLKPEDTAVIKNDYWGQGTQVTVSS,low polyreactivity
17,QVQIVESGGGLVQAGGSLPLSSAPSGSIFAPYAMGWYRQAPGKERELVAAINISGGTYYADSVKGRFTISRDNAKNTLYLQMNSLKPEDTAVYYCAARYLYGYYGFDYWGQGTQVTVSS,high polyreactivity
18,QGQLVESGGALVQAGGSLRLSCAPSGSTFGVYTMGWYRQAPGKERELVAAITKSGGSTYYADSVKGRFTISRDNAKNTVYLQMNSLKPEDTAVYYCNTDYGSYLYYRYGYWGQGTQVTVSS,low polyreactivity
19,QVQLVESGGALVQAGATLRISSAASGSIFYRNSMRWYRQAPGKEREKVAANSSDGSRNYADSVKGRFSISRDNAKNTVYLQMNSLKPEDNAVYYCAVDYGTQYGEYTYYDYDYWGQCTQVTVSS,low polyreactivity
20,QVQRVESGGGLVQAGGSLRLSCAASGITFGPYAMGWYRQAPGKERELVAAITGSGGITYYADSVKGRFTISRDNAKNTVYLQMNSLKPEDTAVYYCAAEYPYVYGTYSDSYTEYDYWGQGTQLTVSS,low polyreactivity
21,QVQLVESGGGLVQAGGSLRLSCAASGYTIRYYAMGWYRQAPGKERELVAAISYSGGRTYYADSVKGRFTISRDNAKNTDYLQMNSLKPEDTAVYYCNAGYYSYRYRYGYDYWGQGTQVTVSS,high polyreactivity
22,QVQLVESGGGLVQAGGSLRLSCAASGSTFSTYAMGWYRQAPGKERELVAVITWRGGSTYYADSVKGRFTISRDNAKNTVYLQMNSLKPEDTAVYYCAAEGESPEYDYWGQGTQVTVSS,low polyreactivity

row,Sequence,polyreactivity (PSR sort gate)
1,QVQLVESGGGLVQAGGSLRLSCAASGRTFTAYTMGWYRQAPGKERELVASITWSGGSTYYADSVKGRFTISRDNAKNTVYLQMNSLKPEDTAVYYCATAFDYGQFQLSSEFNYWGQGTQVTVSS,low polyreactivity
2,QVQLVESGGGLVQAGGSLRLSCAASGIIFQRNDMGWYRQAPGKERELDANIRDGGITYADSVKGRFTISRDNAKNTVYLQMNSLKPEDTAVYYCARYDTSPGYGDQSSNAAYYYWGQVTQVTVSS,low polyreactivity
3,QVQLVESGGGLVQAGGSLRLTCAASVSIFSVYARGWYRQAPGKERELVADINIGGASTYYADSVKGRFTISRDNAKNTVFLQMNSVIPEDTAVYSCAKEYYEGYFPTFDYDYWGQGTQVNVSS,low polyreactivity
4,QVQLVESGGGLVQAGGSLRLSCAASGFIFVVYAMGWYRQAPGTERELVATISSGGGTYYADSVKGRFTISRDNAKITVYLQMNSLKPEDTAVYYCAARRRRLYHFGGNNYWGQGTLVTVSS,high polyreactivity
5,QVQLVESGGGLVQAGGSLRLSCAASGRIFGPYAMGWYRQAPGKERELVATITWRTGSTYYADSVKGRFTISRDNAKNTVYLQMNSLKPEDTAVYYCAAQSRQAYITYGYWGQGTQVTVSS,high polyreactivity
6,QVQLVESGGGIVQAGGSLRLSSAASGSTFYTKSIGWYIQAPGKERELVAAISGSGGSTYYADSVKGRFTISRDTAKNTVYLQMISLKPEDTAVYSCAARSRYYDTRFDYWGQGTQVTVSS,low polyreactivity
7,QVQLVESGGGLVKAGGSLRLSCAASGSMFWSYAMGWYRQAPGKERELVAAISSGGSTNYADTVKGRFTISRDNAKNTVYLQMNSLKPEDTAVYYCSARFYTTCVRRKRYDYWGQGTQVNVSS,high polyreactivity
8,QVQLQGSGGGLVQAGGSLRQSCAASGYIFQNVPMGWNRQAPGKERELVAGIDNGTSTNYADSVNGRFTISRDNAKNTVYLQMNSLKPEDTAVYYCAAAGQADDTLGYWGQGTQVTVSS,low polyreactivity
9,QDQLVESGGGLVQAGGSLRLSCAASGSIFYRNAMGWYIQATGKERELVAAISSDGSTNYADSVKGRFTISRDNAKNTVYLQMNSLKPEDTAVYFCAAPWTQILDYWGQGTQVTVSS,low polyreactivity
10,QVQLVESGGGLVQAGGSLRLSCAASGRTFYKNAMGWYRQAPGKERELVAAISSRGGRTTYADSVKGRFTISRDNAKNTVYLQMNSLKPEDTAVYYCATDWAQVYHGTTKYYYWGQGTQVTVSS,high polyreactivity
11,QVQLVESGGGLVQAGGSLRLSCAATGSIFLYYAMGWYRQAPGKERELVAGINRVGSTNYADSVKGRFTISRDNAKNTVYLELNSLKPEDTAVYYCAAKYRNRYDYWGQGTQATVSS,low polyreactivity
12,QVQLVESGGGLVQAGGSLRLSCAASGSTFGYYTMGWYRQAHGKERELVAAISWGCGSTYYADSVKGRFTISRDNAKNTVYLQMNSLIPEDTAVYYCARTPVTSYKDDFYYWGQGTQVTVSS,low polyreactivity
13,QVQLVESGGGLVQAGGSLRLSCAASGRTFRANAMGWYRQAPGKERELFAAISYSGGRTRYADSVKGRFTISRDNAKNTVYLQMNSLKPEDTAVYYCNRVIPTQSLRDAPGLHQVGYWGQGTQVTVSS,high polyreactivity
14,QVQLVESGGGLVQAGGSLRLSCAASGLTLRNYAMGWYRQAPGKERELVAAITTGGGRTYYADSVKGRFTISRDNAKNTVYLQMNSLKPEDTAVYYCAAERAILSSDKQSLWRFDYWGQGTQVTVSS,low polyreactivity
15,EEELVESGGGLVQAGGSLRLSCAASGSIFYYNAMGWYRQAPGKERELVAAISRGGTTNYADSVKGRFTISRDNAKNTVYLQMNSLKPEDTAVYYCAAKAYDYYGPVYYWGQGTQVTVSS,high polyreactivity
16,QVQLQESRGGPVLAGGSLRLSCAASGTIFVRLDMGWYRQAPGKEREFVATIGSGSSTYYADSVKGSFTISRDNVKNTVYLQMNSLKPEDTAVYYCAVSAAEQSRHYYWDQGTQVTVSS,low polyreactivity
17,QVQLVESGGGLVQAGGSLRLSCAASGSIFSVYAMGWYRQAPGKERELVAAITRGGNTYYADSVKGRFTISRDNAKNTVYLQMNSLKPEDTAVYYCNAGPYGRFYYRGLGYWGQGTQVTVSS,low polyreactivity
18,QVQLVESGGGLVQAGGSLRLSCAASGFIFGTYAMGWYRQAPGKERELVAAITGSGGDTYYADSVKGRFTISRDNAKNTVYLQMNSLKPEDTAVYYCAAVRPPTPSRRREDYWGQGTQVTVSS,low polyreactivity
19,QVQLVESVGGLVQAGGSLRLSCAASGRIFYTYAMGWYRPAPGKERELVAAISSRTGSTYYADSVKGRFTISRDNAKNTVYLQMNSLKPEDTAVYYCNAYRLRYGYDYWGQGTQVTVSS,high polyreactivity
20,QVQLVESGGGLDQAGGSLRLSCAASGITFGFYTMGWYRQAPGKERELVAAITSGGSTSYADSVKGRFTISRDNAKNTVYLQMNSLKPEDTAVYYCAADYLYPFPPYQYWKQSYDYWGQGTQVTVSS,low polyreactivity
21,QVQLVESGGGLVQAGGSLRLSCAASGRIFFNYAMGWYRQAPGKVRELVASITWRGGNTYYADSVKGRFTISRDNAKNTVYLQMNSLKPEDTAVYYCAASIRRAGRTYYYWGQGTQVTVSS,high polyreactivity
